The results in this text go back to patent US20090297440A1 (published 2009).

T1: purified recombinant C35 protein generated in E. coli (human, UniProt Q9BRT3 1-115, limits assumed)
T1 construct: Generated and purified from E. coli with cleavage of selection tags; also called hC35 protein; soluble C35 protein
T1 sequence: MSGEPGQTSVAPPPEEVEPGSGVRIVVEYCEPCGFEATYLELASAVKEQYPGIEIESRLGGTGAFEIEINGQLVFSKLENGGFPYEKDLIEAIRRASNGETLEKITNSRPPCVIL

T2: C35 protein, recombinant, bacterially synthesized (human, UniProt Q9BRT3 1-115, limits assumed)
T2 construct: also called hC35 protein; bacterially-synthesized C35
T2 sequence: T1 sequence

B1: hybridoma clone 1B3 antibody (antibody, mouse IgG1, V domains shown)
VH: EVQLQESGPSLVKPSQTLSLTCSVTGDSITSGYWNWIRKFPGNKLEYVGYISYSGGTYYNPSLKSRISITRDTSKNHYYLQLNSVTTEDTATYYCARGAYYGGAFFPYFDVWGAGTTVTVSS
VL: DVQITQSPSFLAASPGETITINCRASKYISKHLVWYQEKPGETKKLLIYSGSTLQSGLPSRFSGSGSGTDFTLTISSLEPEDFAMYYCQQHNEYPLTFGAGTKLELK
notes: Murine IgG1 from BCA34.hC35 immunization
B2: hybridoma clone 3E10 antibody (antibody, mouse IgG1, V domains shown)
VH: B1 VH
VL: B1 VL
notes: Murine IgG1 kappa from BCA34.hC35 immunization
B3: 1B3 monoclonal antibody (antibody, V domains shown)
VH: B1 VH
VL: B1 VL
notes: Mouse IgG1 kappa, tested as hybridoma supernatant
B4: 3E10 monoclonal antibody (antibody, V domains shown)
VH: B1 VH
VL: B1 VL
notes: as for B3

One experiment addresses T1, purified recombinant C35 protein …. As to the kind of experiment: ELISA, hybridoma supernatant on coated C35 protein.
With B1, the binding result is “binds”.
Still for that read-out and setting: in the case of B2 it was “binds”.

The next experiment concerns the target T2, C35 protein, recombinant, bacterially …. Put plainly: ELISA screen of hybridoma supernatants on plates coated with C35 protein. A general note: In an ELISA, binding on a coated surface is turned into a signal by an enzyme label.
Consider B3, for which the binding result is “binds”.
On the same count and under the same terms, in the case of B4 it was “binds”.

Another experiment deals with HLA-A*0201 (human, UniProt A*02:01). Put plainly: fluorescence polarization competition, test peptide at 100 uM against fluorescent-labeled peptide on HLA-A*0201; from Ymax, calibrated with irrelevant (0%) and relevant (100%) competitor. (In fluorescence polarisation assays a small probe gives low polarisation when free and higher when bound to something large.)
GTGAFEIEI [C35 peptide G61 to I69]: the “% inhibition” value came to 46.5%.
Take SVAPPPEEV [C35 peptide S9 to V17]: the “% inhibition” value is 96.9%.
Take ITNSRPPCV [C35 peptide I105 to V113]: the “% inhibition” value stood at 86.4%.
On to FEIEINGQL [C35 peptide F65 to L73], for which the “% inhibition” value is 74.8%.
As for TYLELASAV [C35 peptide T38 to V46], the “% inhibition” value came out at 47.3%.
As to SGVRIVVEY [C35 peptide S21 to Y29], the “% inhibition” value amounted to 90.8%.

What is called % inhibition is the relative decrease from the control value, in per cent.
